B1: Tyrosine-protein phosphatase non-receptor type 22 (Homo sapiens), Q9Y2R2 (parent)
chain: MDQREILQKFLDEAQSKKITKEEFANEFLKLKRQSTKYKADKTYPTTVAEKPKNIKKNRYKDILPYDYSRVELSLITSDEDSSYINANFIKGVYGPKAYIATQGPLSTTLLDFWRMIWEYSVLIIVMACMEYEMGKKKCERYWAEPGEMQLEFGPFSVSCEAEKRKSDYIIRTLKVKFNSETRTIYQFHYKNWPDHDVPSSIDPILELIWDVRCYQEDDSVPICIHCSAGCGRTGVICAIDYTWMLLKDGIIPENFSVFSLIREMRTQRPSLVQTQEQYELVYNAVLELFKRQMDVIRDKHSGTESQAKHCIPEKNHTLQADSYSPNLPKSTTKAAKMMNQQRTKMEIKESSSFDFRTSEISAKEELVLHPAKSSTSFDFLELNYSFDKNADTTMKWQTKAFPIVGEPLQKHQSLDLGSLLFEGCSNSKPVNAAGRYFNSKVPITRTKSTPFELIQQRETKEVDSKENFSYLESQPHDSCFVEMQAQKVMHVSSAELNYSLPYDSKHQIRNASNVKHHDSSALGVYSYIPLVENPYFSSWPPSGTSSKMSLDLPEKQDGTVFPSSLLPTSSTSLFSYYNSHDSLSLNSPTNISSLLNQESAVLATAPRIDDEIPPPLPVRTPESFIVVEEAGEFSPNVPKSLSSAVKVKIGTSLEWGGTSEPKKFDDSVILRPSKSVKLRSPKSELHQDRSSPPPPLPERTLESFFLADEDCMQAQSIETYSTSYPDTMENSTSSKQTLKTPGKSFTRSKSLKILRNMKKSICNSCPPNKPAESVQSNNSSSFLNFGFANRFSKPKGPRNPPPTWNI

Experiments:
lck_human LCK, P06239 = variants of: B1; settings: with lck_human LCK
[1] = variants of: B1; settings: with zap70_human ZAP70, P43403
cd3z_human CD247, P20963 = variants of: B1; settings: with cd3z_human CD247, P20963
Sequence of cd3z_human CD247, P20963 (P20963 whole entry): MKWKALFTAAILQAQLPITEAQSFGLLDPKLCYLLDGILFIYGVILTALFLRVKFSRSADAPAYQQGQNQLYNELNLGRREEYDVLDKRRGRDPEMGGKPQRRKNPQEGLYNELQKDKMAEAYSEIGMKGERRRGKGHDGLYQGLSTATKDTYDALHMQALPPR

Sequence of lck_human LCK, P06239 (P06239 whole entry, looked up): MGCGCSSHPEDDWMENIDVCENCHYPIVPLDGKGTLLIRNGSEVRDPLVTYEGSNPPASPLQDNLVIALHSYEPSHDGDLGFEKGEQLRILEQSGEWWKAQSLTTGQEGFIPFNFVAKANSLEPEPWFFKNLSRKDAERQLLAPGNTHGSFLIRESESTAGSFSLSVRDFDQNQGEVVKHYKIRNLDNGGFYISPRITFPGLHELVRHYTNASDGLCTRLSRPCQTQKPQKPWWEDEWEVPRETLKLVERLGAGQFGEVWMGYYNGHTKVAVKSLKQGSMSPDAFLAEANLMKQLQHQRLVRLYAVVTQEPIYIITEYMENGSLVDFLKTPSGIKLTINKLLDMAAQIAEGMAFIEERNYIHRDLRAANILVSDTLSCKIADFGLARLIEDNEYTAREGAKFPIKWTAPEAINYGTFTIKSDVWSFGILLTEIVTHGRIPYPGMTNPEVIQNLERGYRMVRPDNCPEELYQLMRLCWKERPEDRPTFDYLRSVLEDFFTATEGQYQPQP
Sequence of zap70_human ZAP70, P43403 (P43403 whole entry): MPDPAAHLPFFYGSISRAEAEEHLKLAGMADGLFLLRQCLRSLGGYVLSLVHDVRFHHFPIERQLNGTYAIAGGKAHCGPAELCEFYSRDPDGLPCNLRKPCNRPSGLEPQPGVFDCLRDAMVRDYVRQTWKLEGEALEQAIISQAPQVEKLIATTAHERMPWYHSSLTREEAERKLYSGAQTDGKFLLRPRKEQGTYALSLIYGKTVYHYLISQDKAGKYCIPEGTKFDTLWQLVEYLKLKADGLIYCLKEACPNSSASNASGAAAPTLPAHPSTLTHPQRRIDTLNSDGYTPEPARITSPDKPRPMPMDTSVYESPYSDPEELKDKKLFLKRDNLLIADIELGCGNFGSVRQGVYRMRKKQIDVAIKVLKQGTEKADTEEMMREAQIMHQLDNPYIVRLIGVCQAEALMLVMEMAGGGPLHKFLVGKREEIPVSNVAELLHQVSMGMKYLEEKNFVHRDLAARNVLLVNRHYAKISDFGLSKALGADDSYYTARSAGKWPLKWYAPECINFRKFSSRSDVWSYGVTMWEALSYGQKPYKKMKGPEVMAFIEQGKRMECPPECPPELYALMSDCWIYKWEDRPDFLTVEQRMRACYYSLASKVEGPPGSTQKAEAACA

| effect of a mutation on the interaction (lck_human LCK, P06239) | effect of a mutation on the interaction [1] | effect of a mutation on the interaction (cd3z_human CD247, P20963) | Variant |
| --- | --- | --- | --- |
| increasing interaction | increasing interaction | increasing interaction | D195A |
| increasing interaction | increasing interaction | increasing interaction | C227S |

— IntAct's records for PubMed 16461343
